Measurements published in US20240059757A1.
Where two headings read alike, the source gives them in different places.

What was measured:
[1] = target: SARS-CoV-2 Spike protein (SARS-CoV-2 Wuhan-Hu-1) (UniProt P0DTC2); assay: cell-based or functional assay
[2] = target: PANG/GX spike protein RBD (PANG/GX)
[3] = target: PANG/GD spike protein RBD (PANG/GD)
[4] = target: SC2018 spike RBD (SC2018)
[5] = target: WIV1 spike protein RBD (WIV1)
[6] = target: RaTG13 spike protein RBD (RaTG13)
[7] = target: BtKY72 spike protein RBD (BtKY72)
[8] = target: BGR2008 spike protein RBD (BGR2008)
[9] = target: ZC45 spike protein RBD (ZC45)
[10] = target: SC2018 spike RBD (SC2018); assay: BLI; *no optimal fitting
[11] = target: WIV1 spike protein RBD (WIV1); assay: BLI
[12] = target: BGR2008 spike protein RBD (BGR2008); assay: BLI
[13] = target: WIV1 spike protein RBD (WIV1); assay: BLI; remark: listed apart in the source
[14] = target: BGR2008 spike protein RBD (BGR2008); assay: BLI; remark: listed apart in the source
[15] = target: PANG/GD spike protein (PANG/GD); assay: cell-based or functional assay
[16] = target: PANG/GX spike protein (PANG/GX); assay: cell-based or functional assay
[17] = target: PANG/GD spike protein RBD (PANG/GD); assay: ELISA
[18] = target: Anlong112 spike RBD (Anlong112); assay: ELISA
[19] = target: BtKY72 spike protein RBD (BtKY72); assay: ELISA
[20] = target: SC2018 spike RBD (SC2018); assay: ELISA
[21] = target: BGR2008 spike protein RBD (BGR2008); assay: ELISA
[22] = target: PANG/GX spike protein RBD (PANG/GX); assay: ELISA
[23] = target: YN2013 spike RBD (YN2013); assay: ELISA
[24] = target: SX2011 spike RBD (SX2011); assay: ELISA
[25] = target: RaTG13 spike protein RBD (RaTG13); assay: ELISA

S2X259 (antibody), sequence (VH): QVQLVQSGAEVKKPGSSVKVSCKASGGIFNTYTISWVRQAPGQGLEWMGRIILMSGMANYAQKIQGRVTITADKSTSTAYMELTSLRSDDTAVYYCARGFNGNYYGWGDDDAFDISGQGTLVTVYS
S2X259 (antibody), sequence (VL): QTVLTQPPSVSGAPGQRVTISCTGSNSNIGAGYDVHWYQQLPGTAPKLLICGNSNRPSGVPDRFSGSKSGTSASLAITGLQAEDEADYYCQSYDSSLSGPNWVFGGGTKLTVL
S2X259 Fab, sequence (VH): as the sequence (VH) above
S2X259 Fab, sequence (VL): as the sequence (VL) above

S2E12-LS (antibody)
neutralization EC50 (interpolated) [1]: 0.0014 µg/mL | neutralization EC90 (interpolated) [1]: 0.0119 µg/mL | neutralization IC50 [1]: 0.0014 µg/mL

S2X259 Fab
Kd [2]: 10 nM | Kd [3]: 0.2 nM | Kd [4]: 64 nM | Kd [5]: 1.4 nM | Kd [6]: 1.1 nM | Kd [7]: 0.4 nM | Kd [8]: 3.6 nM | Kd [9]: 4000 nM

S2X259 (antibody)
Kd [10]: 6.93 nM | Kd [11]: 0.61 nM | Kd [12]: 1.24 nM | Kd [13]: 0.57 nM | Kd [14]: 1.04 nM | neutralization IC50 [15]: 0.179 µg/mL | neutralization IC50 [16]: 1.32 µg/mL | EC50 [17]: 0.0362 µg/mL | EC50 [18]: 0.1 to 1 µg/mL | EC50 [19]: 0.0376 µg/mL | EC50 [20]: 0.001 to 0.05 µg/mL | EC50 [21]: 0.0308 µg/mL | EC50 [22]: 0.0281 µg/mL | EC50 [23]: 0.001 to 0.05 µg/mL | EC50 [24]: 0.001 to 0.05 µg/mL | EC50 [25]: 0.0401 µg/mL

S2M11-LS (antibody)
neutralization EC50 (interpolated) [1]: 0.0011 µg/mL | neutralization EC90 (interpolated) [1]: 0.0144 µg/mL | neutralization IC50 [1]: 0.000914 µg/mL
